Measured values as given in the supplement of paper PMC10724198.
± gives the standard deviation of the averaged measurements.

How the values were obtained:
Saccharomyces cerevisiae [1] = test: protein stability index of tFT-peptide fusion (C-terminal peptide) (PSI (0-1 scale)); higher = more stable (slower turnover); settings: genetic background: wild type; temperature: 30 C
Saccharomyces cerevisiae [2] = test: as above
Protocol: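 MPS profiling in S. cerevisiae of the tFT-X12 degron library: putative degron peptides plus stable controls, 12 aa, fused to the C-terminus of a sfGFP-mCherry timer. Cells are FACS-sorted into 8 mCherry/sfGFP bins and deep-sequenced. PSI runs from 0 (unstable) to 1 (stable). Backgrounds are wild type, das1Δ and doa10Δ at 30 °C, and wild type, das1Δ, cdc34-1 and cdc53-1 at 37 °C; 2-3 technical replicates each.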

[3] = genetic background: cdc34-1, temperature: 37 C
[4] = genetic background: cdc53-1, temperature: 37 C
[5] = genetic background: das1 deletion, temperature: 30 C
[6] = genetic background: das1 deletion, temperature: 37 C
[7] = genetic background: doa10 deletion, temperature: 30 C
[8] = genetic background: wild type, temperature: 30 C
[9] = genetic background: wild type, temperature: 37 C
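Note: PSI is a weighted mean of sequencing reads over stability bins, variants kept only with over 10 reads, mCherry proximal and sfGFP distal, peptide attached via GGGS linker.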

Row | Sequence | protein stability index (Saccharomyces cerevisiae [1]) | protein stability index (Saccharomyces cerevisiae [2]; [3]) | protein stability index (Saccharomyces cerevisiae [2]; [4]) | protein stability index (Saccharomyces cerevisiae [2]; [5]) | protein stability index (Saccharomyces cerevisiae [2]; [6]) | protein stability index (Saccharomyces cerevisiae [2]; [7]) | protein stability index (Saccharomyces cerevisiae [2]; [8]) | protein stability index (Saccharomyces cerevisiae [2]; [9])
1 | CQVSEWIRYRFL | 0.417 ± 0.02 | 0.681 ± 0.074 | 0.743 ± 0.01 | 0.637 ± 0.034 | 0.734 ± 0.018 | 0.247 ± 0.0032 | 0.252 ± 0.0098 | 0.386 ± 0.016
2 | CRAAMYSFFLNF | 0.427 ± 0.025 | 0.674 ± 0.063 | 0.75 ± 0.017 | 0.651 ± 0.037 | 0.7584 ± 0.0043 | 0.236 ± 0.0046 | 0.299 ± 0.0089 | 0.529 ± 0.022
3 | CRLFFVFVFFWW | 0.253 ± 0.095 | 0.22 ± 0.04 | 0.179 ± 0.024 | 0.253 ± 0.03 | 0.322 ± 0.0059 | 0.311 ± 0.01 | 0.249 ± 0.022 | 0.274 ± 0.023
4 | CSFCSGMILLLS | 0.418 ± 0.0062 | 0.522 ± 0.055 | 0.557 ± 0.018 | 0.433 ± 0.02 | 0.583 ± 0.0064 | 0.391 ± 0.004 | 0.323 ± 0.044 | 0.527 ± 0.028
5 | CTAWWVKGVAVK | 0.525 ± 0.049 | 0.622 ± 0.033 | 0.6395 ± 0.0018 | 0.443 ± 0.031 | 0.643 ± 0.023 | 0.424 ± 0.028 | 0.435 ± 0.018 | 0.624 ± 0.029
6 | CVILVSFFCYSA | 0.2201 ± 0.00089 | 0.142 ± 0.021 | 0.221 ± 0.014 | 0.142 ± 0.059 | 0.322 ± 0.0071 | 0.119 ± 0.0041 | 0.132 ± 0.059 | 0.284 ± 0.0073
7 | CVLLVFLHLCLA | 0.381 ± 0.0019 | 0.292 ± 0.0051 | 0.392 ± 0.022 | 0.283 ± 0.027 | 0.4448 ± 0.0025 | 0.256 ± 0.014 | 0.263 ± 0.049 | 0.402 ± 0.0075
8 | CVLVLLLRLAFL | 0.4885 ± 0.0022 | 0.5506 ± 0.0053 | 0.5516 ± 0.0013 | 0.44 ± 0.032 | 0.5995 ± 0.0041 | 0.467 ± 0.027 | 0.434 ± 0.0093 | 0.561 ± 0.015
9 | CWILLFGCVWVG | 0.263 ± 0.0084 | 0.1785 ± 0.0003 | 0.335 ± 0.049 | 0.233 ± 0.023 | 0.397 ± 0.033 | 0.221 ± 0.015 | 0.234 ± 0.0095 | 0.336 ± 0.037
10 | CWSSVGLSVCGC | 0.601 ± 0.16 | 0.676 ± 0.026 | 0.7508 ± 0.0058 | 0.619 ± 0.031 | 0.7193 ± 0.0065 | 0.597 ± 0.037 | 0.599 ± 0.012 | 0.693 ± 0.024
11 | CWYRAVSIQYVL | 0.306 ± 0.015 | 0.435 ± 0.027 | 0.53 ± 0.025 | 0.367 ± 0.0057 | 0.466 ± 0.021 | 0.26 ± 0.03 | 0.272 ± 0.027 | 0.412 ± 0.0089
12 | DFWMLLFGIIFA | 0.449 ± 0.019 | 0.488 ± 0.041 | 0.521 ± 0.011 | 0.389 ± 0.027 | 0.565 ± 0.033 | 0.387 ± 0.015 | 0.4 ± 0.027 | 0.538 ± 0.017
13 | DHSWGGLLICTC | 0.473 ± 0.039 | 0.476 ± 0.011 | 0.492 ± 0.042 | 0.343 ± 0.049 | 0.546 ± 0.022 | 0.33 ± 0.026 | 0.364 ± 0.028 | 0.513 ± 0.017
14 | DILCGRCMIVGA | 0.495 ± 0.018 | 0.592 ± 0.045 | 0.573 ± 0.023 | 0.415 ± 0.041 | 0.6044 ± 0.0056 | 0.393 ± 0.0059 | 0.422 ± 0.011 | 0.555 ± 0.013
15 | DIRLWISCTLWF | 0.324 ± 0.013 | 0.244 ± 0.019 | 0.361 ± 0.043 | 0.25 ± 0.029 | 0.425 ± 0.014 | 0.26 ± 0.0053 | 0.242 ± 0.025 | 0.37 ± 0.019
16 | DLFVFFVFHFFL | 0.457 ± 0.026 | 0.425 ± 0.032 | 0.532 ± 0.029 | 0.372 ± 0.041 | 0.589 ± 0.013 | 0.377 ± 0.015 | 0.38 ± 0.033 | 0.5686 ± 0.0029
17 | DLRFAWLLSCFS | 0.432 ± 0.015 | 0.44 ± 0.017 | 0.47 ± 0.011 | 0.331 ± 0.034 | 0.501 ± 0.014 | 0.293 ± 0.006 | 0.334 ± 0.022 | 0.476 ± 0.0054
18 | DSSRRKRLICMN | 0.25 ± 0.093 | 0.611 ± 0.016 | 0.702 ± 0.032 | 0.656 ± 0.015 | 0.731 ± 0.008 | 0.18 ± 0.016 | 0.21 ± 0.032 | 0.341 ± 0.017
